{"source": "paper PMC7840129", "about": "“Structural basis for heme-dependent NCoR binding to the transcriptional repressor REV-ERBβ” (Science Advances, 2021)", "key": {"[1]": {"molecular_target": "T1, human REV-ERBβ ligand-binding domain (residues 381 to 579) (human, UniProt Q14995 381-579)", "T1 construct": "cloned into pET46; Used ligand-free (apo) or loaded with heme (a small molecule; 1.05 to 2 molar equivalents); the two states are told apart by the assays; also called REV-ERBβ LBD; LBD; source: E. coli BL21(DE3), purified (IMAC, 3C protease cleavage, size exclusion); 15N-labelled in M9 minimal media for NMR; not shown: 6xHis, N-terminal, cleaved", "T1 sequence (looked up)": "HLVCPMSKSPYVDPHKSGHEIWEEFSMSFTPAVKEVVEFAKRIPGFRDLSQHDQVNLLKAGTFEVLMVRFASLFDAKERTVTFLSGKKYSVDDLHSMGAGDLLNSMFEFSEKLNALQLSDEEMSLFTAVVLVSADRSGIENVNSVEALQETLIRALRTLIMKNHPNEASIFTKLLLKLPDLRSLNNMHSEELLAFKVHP", "assay": "ITC; apo LBD (300 μM, syringe; for WT RID 2 × 20 injections of 150 μM) titrated into RID construct (15 μM, cell); 25°C; Hepes assay buffer; WT RID fit to two nonsymmetric sites, microscopic K model; ΔID2 fit to A + B ↔ AB", "settings": "both partners purified"}, "[2]": {"molecular_target": "T1, human REV-ERBβ ligand-binding domain …", "assay": "ITC; heme-bound LBD (300 μM, syringe) titrated into RID construct (15 μM, cell), 4 molar equivalents; 25°C; Hepes assay buffer; WT RID fit to A + B ↔ AB", "settings": "both partners purified"}, "[3]": {"molecular_target": "T1, human REV-ERBβ ligand-binding domain …", "assay": "ITC; apo LBD (500 μM, syringe) titrated into ID peptide (50 μM, cell); 25°C; 20 mM Hepes pH 7.4, 50 mM KCl, 0.5 mM EDTA, 5 mM TCEP; A + B ↔ AB model in SEDPHAT", "settings": "both partners purified"}, "[4]": {"system": "Bmal1 REV-RE promoter luciferase in HEK293T cells", "assay": "Bmal1-luciferase transcriptional repression assay", "type": "cell-based, human", "settings": "for fold repression of Bmal1-luciferase: HEK293T, 24 hours, relative to empty vector, n = 3 independent experiments", "excerpt": "The human REV-ERBβ LBD (residues 381 to 579) was previously cloned into the pET46 vector ([18]). The mouse NCoR RID (residues 1942 to 2208 in the X50 splice variant), which has 87% sequence identity to human NCoR RID (100% sequence identity in the ID motifs), was previously cloned into the pET32 vector ([29]). NCoR RID mutants were generated by site-directed mutagenesis: The ID1 CoRNR box motif was mutated from […] to […] (ΔID1 and ΔID1ΔID2), and the ID2 CoRNR box motif was mutated from LEDIIRKAL to TEDTTRKAL (ΔID2 and ΔID1ΔID2), as these mutations were previously reported to disrupt CoRNR box binding ([10], [30]). Heme (Sigma-Aldrich, no. 51280) was prepared either as a 1 mM stock in dimethyl sulfoxide (DMSO) stored at 4°C or 50 mM stock in 0.2 M NaOH (solutions prepared in 0.2 M NaOH were always made fresh immediately before the experiment), where indicated. […] Human embryonic kidney (HEK) 293T cells (American Type Culture Collection, no. CRL-11268) were cultured in Dulbecco’s modified eagle medium (DMEM) supplemented with 10% fetal bovine serum, 2 mM L-glutamine, and 1% penicillin-streptomycin at 37°C and 5% CO2 under standard culture conditions. The pcDNA3.1^+ expression vector containing full-length human REV-ERBβ ([31]) and the pGL3-Bmal1-luciferase construct containing the Bmal1 promoter (−816 to +99 of the mouse Bmal1 promoter region) were used in HEK293T cell transfections. […]\nHEK293T cells were plated at 1.5 × 10^3 cells per well in 96-well flat-bottom plates in DMEM 24 hours before transfection. […] Luciferase activity was harvested 24 hours after transfection with Britelite Plus (PerkinElmer) and read using a BioTek Synergy plate reader. Raw luminescence values of REV-ERBβ–transfected wells were normalized to pcDNA3.1 empty vector transfection wells individually for each Bmal1-luciferase construct to determine fold repression by REV-ERBβ for each Bmal1-luciferase construct. […]"}, "[5]": {"molecular_target": "T1, human REV-ERBβ ligand-binding domain …", "assay": "ITC; heme-bound LBD (500 μM with 1.05 molar equivalents of heme, syringe) titrated into ID peptide (50 μM, cell); 25°C; 20 mM Hepes pH 7.4, 50 mM KCl, 0.5 mM EDTA, 5 mM TCEP; A + B ↔ AB model in SEDPHAT", "settings": "both partners purified"}}, "note": "Where no end group is shown, it is not given here.", "data": [{"molecule": "mouse NCoR RID ΔID2 mutant (domain or fragment) QVPRTHRLITLADHICQIITQDFARNQVPSQASTSTFQTSPSALSSTPVRTKTSSRYSPESQSQTVLHPRPGPRVSPENLVDKSRGSRPGKSPERSHIPSEPYEPISPPQGPAVHEKQDSMLLLSQRGVDPAEQRSDSRSPGSISYLPSFFTKLESTSPMVKSKKQEIFRKLNSSGGGDSDMAAAQPGTEIFNLPAVTTSGAVSSRSHSFADPASNLGTEDTTRKALMGSFDDKVEDHGVVMSHPVGIMPGSASTSVVTSSEARRDE", "values": [{"measurement": "Kd", "setting": "[1]", "value": 130, "unit": "nM"}]}, {"molecule": "mouse NCoR receptor interaction domain (residues 1942 to 2208 in the X50 splice variant), wild type (domain or fragment) QVPRTHRLITLADHICQIITQDFARNQVPSQASTSTFQTSPSALSSTPVRTKTSSRYSPESQSQTVLHPRPGPRVSPENLVDKSRGSRPGKSPERSHIPSEPYEPISPPQGPAVHEKQDSMLLLSQRGVDPAEQRSDSRSPGSISYLPSFFTKLESTSPMVKSKKQEIFRKLNSSGGGDSDMAAAQPGTEIFNLPAVTTSGAVSSRSHSFADPASNLGLEDIIRKALMGSFDDKVEDHGVVMSHPVGIMPGSASTSVVTSSEARRDE", "values": [{"measurement": "Kd", "setting": "[2]", "value": 99, "unit": "nM"}]}, {"molecule": "DPASNLGLEDIIRKALMGSFDDK (not fully specified, source: synthetic peptide, bought: LifeTein)", "note": "[NCoR ID2 peptide]", "values": [{"measurement": "Kd", "setting": "[3]", "value": 84000, "unit": "nM"}]}, {"molecule": "REV-ERBβ: full-length human REV-ERBβ expressed from pcDNA3.1 vector in HEK293T cells (protein, left off: 6xHis, N-terminal, cleaved, full-length human REV-ERBβ expressed from pcDNA3.1 vector in HEK293T cells) HLVCPMSKSPYVDPHKSGHEIWEEFSMSFTPAVKEVVEFAKRIPGFRDLSQHDQVNLLKAGTFEVLMVRFASLFDAKERTVTFLSGKKYSVDDLHSMGAGDLLNSMFEFSEKLNALQLSDEEMSLFTAVVLVSADRSGIENVNSVEALQETLIRALRTLIMKNHPNEASIFTKLLLKLPDLRSLNNMHSEELLAFKVHP", "values": [{"measurement": "fold repression of Bmal1-luciferase", "setting": "[4]; WT Bmal1 construct", "value": "approximately ninefold"}, {"measurement": "fold repression of Bmal1-luciferase", "setting": "[4]; mutant Bmal1 constructs (one or both DNA binding sites within REV-RE mutated)", "value": "approximately threefold"}, {"measurement": "reduction of repression in mutant vs WT Bmal1 constructs", "setting": "[4]; pRORE, dRORE or p/dRORE mutants vs WT, ***P < 0.001 by Student's t test", "value": "more than half"}]}, {"molecule": "RTHRLITLADHICQIITQDFARN (not fully specified, source: synthetic peptide, bought: LifeTein)", "note": "[NCoR ID1 peptide]", "values": [{"measurement": "Kd", "setting": "[3]", "value": 490, "unit": "nM"}, {"measurement": "Kd", "setting": "[5]", "value": 2400, "unit": "nM"}]}]}
